These results are taken from patent publication US8586530B2, “Modulation of inhibition of ferrochelatase by N-methyl protoporphyrin” (University of South Florida, priority 2006, dated 2013).

What is called kcat is the maximal rate divided by the concentration of active sites. The Km is the substrate concentration at which the rate is half of its maximum.

Where a chain is given by its changes, count along the chain named. Names may count otherwise.

The labels stand for the following.
B1: P255R: murine ferrochelatase variant in which P255 was replaced with arginine (protein, UniProt P22315 54-422, looked up, variant P255R)
Ferrochelatase, mitochondrial: TTKPQAQPERRKPKTGILMLNMGGPETLGEVQDFLQRLFLDRDLMTLPIQNKLAPFIAKRRTPKIQEQYRRIGGGSPIKMWTSKQGEGMVKLLDELSPATAPHKYYIGFRYVHPLTEEAIEEMERDGLERAIAFTQYPQYSCSTTGSSLNAIYRYYNEVGQKPTMKWSTIDRWPTHPLLIQCFADHILKELNHFPEEKRSEVVILFSAHSLPMSVVNRGDPYPQEVGATVHKVMEKLGYPNPYRLVWQSKVGPVRWLGPQTDEAIKGLCERGRKNILLVPIAFTSDHIETLYELDIEYSQVLAQKCGAENIRRAESLNGNPLFSKALADLVHSHIQSNKLCSTQLSLNCPLCVNPVCRKTKSFFTSQQL
B2: wild-type ferrochelatase: recombinant wild-type, murine ferrochelatase with N-terminal penta-histidine tag (protein, UniProt P22315 54-422, looked up)
Ferrochelatase, mitochondrial: B1 Ferrochelatase, mitochondrial with R255P
B3: P255G: murine ferrochelatase variant in which P255 was replaced with glycine (protein, UniProt P22315 54-422, looked up, variant P255G)
Ferrochelatase, mitochondrial: B1 Ferrochelatase, mitochondrial with R255G

One series deals with E. coli Δvis cells. Briefly: Genetic selection in E. coli: growth of Δvis transformants on NMPP-containing plates. Type of series: cell-based, Escherichia coli. As to conditions: medium containing more than 20 μM NMPP. The method, then:
To isolate Escherichia coli Δvis transformants harboring loop variants more tolerant to NMPP than wild-type ferrochelatase, 33 variants isolated from a library of 214 functional, ferrochelatase clones were plated on LB-ampicilin medium containing 0.2 μM, 2 μM or 20 μM NMPP. E. coli Δvis cells can only grow when hemin is added to the medium or when the cells are transformed with an active ferrochelatase expression plasmid. Transformants harboring a subset of the functional loop variants including K250N, V251L, P255R, P255G, K250M/V251L/W256Y and Q248P/S249G/250P/G252W were grown onto LB-ampicilin plates with increasing concentrations of NMPP. […] Based on this observation, the P255 variants were selected for further characterization.
Genetic Selection in E. coli. E. coli Δvis cells harboring plasmids encoding active, ferrochelatase variants isolated from a random sequence library of the loop motif were grown 16-18 h at 37° C. in LB agar medium containing 50 μg/mL of ampicillin and varying concentrations of NMPP. For the preparation of the NMPP-containing LB-ampicilin agar plates, a 2 mM stock solution of NMPP was made by dissolving NMPP in 20 mM NH4OH containing 2% Tween-20. The solution was filter-sterilized and kept at 4° C. The stock solution was diluted 100-, 1000- and 10000-fold to prepare LB-ampicilin plates containing 20 μM, 2 μM and 0.2 μM NMPP. Δvis cells transformed with wild-type ferrochelatase and functional variants were grown in LB medium containing 50 μg/mL ampicilin and 0.4% (w/v) glucose at 37° C., overnight, with shaking at 220 RPM. Each of the overnight cultures was diluted 20-fold into fresh medium and grown at 37° C. for ˜1 hr until OD600 reached ˜0.4-0.5. Subsequently, these cultures were diluted with LB medium by 10^6 and 100 μl aliquots of the diluted stock were spread on LB-ampicilin agar plates and LB-ampicilin agar plates containing NMPP at 0.2 μM, 2 μM and 20 μM, respectively. The plates were incubated at 37° C. for 16 hr, and the colonies on each plate were counted. […]
Take B1: the “colony formation of Δvis cells expressing the enzyme” value was “could form colonies”.

As to B2, the “colony formation of Δvis cells expressing the enzyme” value is “could not”.

For the molecule B3, the “colony formation of Δvis cells expressing the enzyme” value is recorded as “could form colonies”.

Tested on in a further series: not listed separately
Briefly: Steady-state kinetics of ferrochelatase and P255 variants. The series is classed as biochemical, murine.
Conditions: not given
The source says:
One possible explanation for these findings is that the mechanism of interaction between the enzyme and the protoporphyrin substrate differs from that for inhibitor binding. It is conceivable that the active site of ferrochelatase is optimized for interaction with the protoporphyrin substrate and retains a certain degree of plasticity towards this end. Possibly, this facilitates the induction of porphyrin deformation in the protein matrix, and in so doing, ensures the catalytic reaction to proceed. In contrast, the constraints of the active site towards NMPP are presumably more stringent than towards the protoporphyrin substrate and any alterations of the active site affect the selectivity towards NMPP. Another possible explanation, and not necessarily mutually exclusive from the former, is that mutations introduced in the active site (e.g., at the P255 position) cause an alteration of the regiospecificity of ferrochelatase, such that the mutated active site can accommodate either a regioisomer or a combination of regioisomers of NMPP different from those of the wild-type active site. It is worth noting that 1) the commercially available NMPP used in this study consists of a racemic mixture of the eight potential isomers and 2) only one NMPP isomer was identified in the crystal structure of the B. subtillis ferrochelatase.
Protein Purification. Wild-type, murine ferrochelatase and variants were over-expressed, under the control of the E. coli alkaline phosphatase promoter phoA, in BL21(DE3) cells. The purification of the recombinant proteins bearing a N-terminal penta-histidine tag, assessment of the purity by sodium dodecyl sulfate-polyacrylamide gel electrophoresis and determination of protein concentration and enzymatic activity were as described previously (Shi and Ferreira 2004).
As to B1, the kcat was found to be 7.8 ± 0.8 min⁻¹.

For B2, the kcat was 4.1 ± 0.3 min⁻¹.

With B3, the kcat turned out to be 5.9 ± 1.4 min⁻¹.

Staying with this series, now noted: protoporphyrin, read-out: Km^PPIX.
For B1, the Km turned out to be 2650 ± 440 nM.

Regarding B2, the Km was 1400 ± 200 nM.

In the case of B3, the Km turned out to be 2510 ± 800 nM.
